Numbering of substitutions follows the chain as printed. Blank lines part the entries; values can stand above or below the binder they belong to.
How the values were obtained:
[1] = biological target: T1, human CD19 (human, UniProt P15391 20-556); assay: flow cytometry on CD19 transfected CHO-K1 cells, Scatchard analysis
T1 construct: whole, on cells; also called Cluster of Differentiation 19; hPro1
T1 sequence (looked up): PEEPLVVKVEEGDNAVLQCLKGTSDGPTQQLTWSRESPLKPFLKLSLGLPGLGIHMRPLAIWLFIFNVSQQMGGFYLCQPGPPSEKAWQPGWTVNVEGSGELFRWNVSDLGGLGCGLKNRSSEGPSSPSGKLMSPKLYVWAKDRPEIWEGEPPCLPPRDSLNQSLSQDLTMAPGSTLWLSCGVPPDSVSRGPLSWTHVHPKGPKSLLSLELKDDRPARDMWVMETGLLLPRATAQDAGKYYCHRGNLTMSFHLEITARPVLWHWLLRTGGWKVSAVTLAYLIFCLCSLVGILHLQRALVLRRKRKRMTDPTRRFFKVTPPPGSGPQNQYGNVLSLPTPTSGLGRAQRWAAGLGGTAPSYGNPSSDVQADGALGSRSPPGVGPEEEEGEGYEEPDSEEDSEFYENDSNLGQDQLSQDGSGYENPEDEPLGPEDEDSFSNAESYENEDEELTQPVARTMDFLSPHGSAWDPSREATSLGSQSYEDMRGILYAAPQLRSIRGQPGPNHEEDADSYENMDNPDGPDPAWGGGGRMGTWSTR
Procedure: The CD19 transfected CHO-K1 cells or Ramos cells were plated in a 96-well plates (BD) at a density of 5×10⁴ cells/well. Antibodies to be tested were serially diluted in the staining buffer (1×PBS/1% BSA) and incubated with cells at 4° C. for 1 hr.
The affinity of selected candidate antibodies were tested on CD19 transfected CHO-K1 cell by flow cytometry.

[2] = biological target: T1, human CD19; assay: cell-based or functional assay
[3] = biological target: T2, cynomolgus monkey CD19 (cynomolgus monkey, UniProt A0A2K5W8L9 20-557); assay: flow cytometry on cynomolgus CD19 transfected CHO-K1 cells
T2 construct: whole, on cells; also called cyno CD19; cPro1
T2 sequence: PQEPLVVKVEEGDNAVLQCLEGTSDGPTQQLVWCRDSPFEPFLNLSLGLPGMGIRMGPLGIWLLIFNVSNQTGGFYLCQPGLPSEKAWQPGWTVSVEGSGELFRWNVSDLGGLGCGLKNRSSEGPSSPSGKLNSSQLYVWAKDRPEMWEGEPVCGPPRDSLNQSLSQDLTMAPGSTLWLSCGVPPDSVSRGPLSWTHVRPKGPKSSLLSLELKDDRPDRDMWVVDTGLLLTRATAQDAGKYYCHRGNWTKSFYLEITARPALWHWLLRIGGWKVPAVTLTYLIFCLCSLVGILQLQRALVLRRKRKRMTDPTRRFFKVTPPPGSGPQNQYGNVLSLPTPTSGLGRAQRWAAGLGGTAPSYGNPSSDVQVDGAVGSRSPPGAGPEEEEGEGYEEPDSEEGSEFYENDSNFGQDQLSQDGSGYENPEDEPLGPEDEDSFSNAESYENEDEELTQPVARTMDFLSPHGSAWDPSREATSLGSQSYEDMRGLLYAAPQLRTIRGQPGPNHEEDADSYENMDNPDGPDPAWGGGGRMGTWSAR
Procedure: (§1) The cynomolgus CD19 transfected CHO-K1 cells were plated in 96-well U-bottom plates (BD) at a density of 1×10⁵ cells/well. The purified antibody were serially diluted in the staining buffer (1×PBS/1% BSA) and incubated with cells for 1 hr at 4° C. The cells were then washed twice with staining buffer (BSA/1×PBS). […] The cells were then washed twice and re-suspended in 100 μL staining buffer. The fluorescence intensity was measured by flow cytometry (BD Canto II) and analyzed by FlowJo.
The binding activity to cynomogus monkey CD19 of candidate antibodies was evaluated using cynomolgus monkey CD19 transfected CHO-K1 cell line (FIG. 5).

[4] = biological target: T1, human CD19; assay: flow cytometry on Ramos cells
Procedure: as §1, with “Ramos” for “cynomolgus CD19 transfected CHO-K1”
Binding activity of the selected subclones were tested on Ramos cell by flow cytometry (FIG. 4).

[5] = biological target: T1, human CD19; assay: FACS on Ramos cells, Scatchard analysis
Procedure: KD was calculated using Scatchard Analysis.

B1: WBP7011-4.100.1 (antibody, V domains shown)
VH: EVQLQQSGPELVKPGASVKMSCKASGYTFTSYVIHWVKQKPGQGLEWIGYINPYNDGAEYTEKFKGKATLTSDKSSSTAYMELSSLTSEDSTVYYCARGPYYYGGSPFDYWGQGTTLTVSS
VL: DAVMTQTPLSLPVSLGDQASISCRSSQSLENSNGNTYLNWYLQKPGQSPQLLIYRVSNRFSGVLDRFSGSGSGTDFTLKISRVEAEDLGVYFCLQVTHVPYTFGGGTKLEIK
notes: also called W7011-4.100.1
Kd [1]: 0.213 nM | EC50 of cell viability, Fab-Zap assay on Ramos cells (internalization) [2]: 0.0148 nM | EC50 [3]: 0.438 nM | EC50 [4]: 0.17 nM

B3: WBP7011-4.15.10 (antibody, V domains shown)
VH: B1 VH with I34M, V37M, A58T, T61H, T92A, Y94F, Y110F
VL: B1 VL
notes: also called W7011-4.15.10
Kd [1]: 0.17 nM | EC50 of cell viability, Fab-Zap assay on Ramos cells (internalization) [2]: 0.0139 nM | EC50 [3]: 0.46 nM | EC50 [4]: 0.31 nM

B4: WBP7011_4.56.1 (antibody, V domains shown)
VH: B1 VH with S31N, A58T, T61N, K74T, E82A, T92A, A97T
VL: B1 VL
notes: also called W7011-4.56.1
Kd [1]: 0.118 nM | EC50 of cell viability, Fab-Zap assay on Ramos cells (internalization) [2]: 0.0084 nM | EC50 [3]: 0.438 nM | EC50 [4]: 0.1 nM

B6: WBP7011-4.106.3 (antibody, V domains shown)
VH: B1 VH with T30S, T61A, T78S, S84G, T92A
VL: B1 VL
notes: also called W7011-4.106.3
Kd [1]: 0.231 nM | EC50 of cell viability, Fab-Zap assay on Ramos cells (internalization) [2]: 0.0136 nM | EC50 [3]: 0.496 nM | EC50 [4]: 0.23 nM

B8: WBP7011_4.108.3 (antibody, V domains shown)
VH: B1 VH with K19E, V37L, T61N, E82D, S84N, T92A, G105S
VL: B1 VL
notes: also called W7011-4.108.3
Kd [1]: 0.252 nM | EC50 of cell viability, Fab-Zap assay on Ramos cells (internalization) [2]: 0.0206 nM | EC50 [3]: 0.863 nM | EC50 [4]: 0.19 nM

B9: WBP7011-4.34.11 (antibody, V domains shown)
VH: B1 VH with S31N, I51F, A58T, T61N, G66A, T92A, R98K, G105S
VL: B1 VL
Kd [1]: 0.181 nM | EC50 of cell viability, Fab-Zap assay on Ramos cells (internalization) [2]: 0.007 nM | EC50 [3]: 0.443 nM | EC50 [4]: 0.23 nM

B10: WBP7011-4.34.11-z1-m5-IgG1k (antibody, V domains shown)
VH: QVQLVQSGAEVKKPGSSVKVSCKASGYTFTDYVIHWVRQAPGQGLEWMGYFNPYNDGTEYNEKFKARVTITADKSTSTAYMELSSLRSEDTAVYYCARGPYYYGSSPFDYWGQGTTVTVSS
VL: DIVMTQTPLSLPVTPGEPASISCRSSQSLENSNHNTYINWYLQKPGQSPQLLIYRVSKRFSGVPDRFSGSGSGTDFTLKISRVEAEDVGVYYCHQVTHVPYTFGQGTKLEIK
notes: human IgG1, kappa by its name
Kd [5]: 0.23 nM

B11: WBP7011_4.155.8 (antibody, V domains shown)
VH: EIQLQQSGPELVKPGASVKVSCKASGYAFTSYNMYWVKQSHGKSLEWIGYIDPYNGDTTYNQKFKGKATLTVDKSSSTAYMHLNSLTSEDSAVYYCLTTAYAMDYWGQGTSVTVSS
VL: QIVLTQSPAIMSASLGEEITLTCSASSTVNYMHWYQQKSGTSPKLLIYSTSNLASGVPSRFSGSGSGTFYSLTIRSVEAEDAADYYCHQWSSYPYTFGGGTKLEIK
Kd [1]: 0.949 nM | EC50 of cell viability, Fab-Zap assay on Ramos cells (internalization) [2]: 0.0276 nM | EC50 [3]: 1.54 nM | EC50 [4]: 0.85 nM

B14: WBP7011-4.87.6-z1-IgG1k (N-S) (antibody, V domains shown)
VH: QVQLVQSGAEVKKPGASVKVSCKASGYAFSTYWMNWVRQAPGQGLEWMGQIYPGDDDTKYSGKFKGRVTITADKSTSTAYMELSSLRSEDTAVYYCARRYFRYDYWYSDVWGQGTTVTVSS
VL: DIQMTQSPSSLSASVGDRVTITCRASQDISNYLNWYQQKPGKVPKLLIYYTSRLHSGVPSRFSGSGSGTDFTLTISSLQPEDVATYYCHQGNTLPLTFGQGTKLEIK
notes: human IgG1, kappa by its name
Kd [5]: 0.25 nM

B15: WBP7011-4.87.6 (antibody, V domains shown)
VH: QVQLQQSGAELVRPGSSVKISCKASGYAFSTYWMNWVKQRPGQGLEWIGQIYPGDDDTKYNGKFKGKASLTADKSSSTAYMQLISLTSEDSAVYFCARRYFRYDYWYSDVWGAGTTVTVTS
VL: DIQMTQTTSSLSASLGDRVTISCRASQDISNYLNWYQQKPDGTVKLLIYYTSRLHSGVPARFSGSGSGTDYSLTISNLEQEDIATYFCHQGNTLPLTFGAGTKLELK
Kd [1]: 0.0955 nM | EC50 of cell viability, Fab-Zap assay on Ramos cells (internalization) [2]: 0.0085 nM | EC50 [3]: 0.285 nM | EC50 [4]: 0.1 nM

The next lines start with results.

EC50 [4]: 0.07 nM
B2: WBP7011_4.191.6 (antibody, mouse IgG1, V domains shown)
VH: B1 VH with Q5L, S31D, K40R, A58S, T61S, T92A
VL: B1 VL
notes: Mouse monoclonal from hybridoma; isotype printed only for the sister subclone 4.191.3 (mouse IgG1, kappa); also called W7011-4.191.6
EC50 of cell viability, Fab-Zap assay on Ramos cells (internalization) [2]: 0.0191 nM

Kd [1]: 0.42 nM | EC50 [3]: 0.996 nM | EC50 [4]: 0.15 nM
B5: WBP7011_4.194.10 (antibody, V domains shown)
VH: B1 VH with I34M, A58T, E59K, T61N, T92A, G105S
VL: B1 VL with S28T, A85T
notes: also called W7011-4.194.10
EC50 of cell viability, Fab-Zap assay on Ramos cells (internalization) [2]: 0.0117 nM

Kd [1]: 0.17 nM | EC50 [3]: 0.628 nM | EC50 [4]: 0.12 nM
B7: WBP7011_4.231.5 (antibody, V domains shown)
VH: B1 VH with I34M, A58T, E59Q, T61N, T92A, G104S, G105P
VL: B1 VL
notes: also called W7011-4.231.5
EC50 of cell viability, Fab-Zap assay on Ramos cells (internalization) [2]: 0.0085 nM

Kd [1]: 0.847 nM | EC50 [3]: 2.3 nM | EC50 [4]: 0.64 nM
B12: WBP7011_4.202.9 (antibody, mouse IgG2a, V domains shown)
VH: B11 VH
VL: B11 VL
notes: also called W7011-4.202.9
EC50 of cell viability, Fab-Zap assay on Ramos cells (internalization) [2]: 0.0236 nM

Kd [1]: 0.735 nM | EC50 [3]: 1.77 nM | EC50 [4]: 0.45 nM
B13: WBP7011_4.225.7 (antibody, mouse IgG2a, V domains shown)
VH: B11 VH
VL: B11 VL
notes: also called W7011-4.225.7
EC50 of cell viability, Fab-Zap assay on Ramos cells (internalization) [2]: 0.015 nM
